How the values were obtained:
Test in all cases: far-Western, overlay or dot blot
MBP-BSU1-S764A = target: T1, MBP-BSU1-S764A (Arabidopsis, UniProt Q9LR78 1-793, S764A)
T1 sequence (looked up): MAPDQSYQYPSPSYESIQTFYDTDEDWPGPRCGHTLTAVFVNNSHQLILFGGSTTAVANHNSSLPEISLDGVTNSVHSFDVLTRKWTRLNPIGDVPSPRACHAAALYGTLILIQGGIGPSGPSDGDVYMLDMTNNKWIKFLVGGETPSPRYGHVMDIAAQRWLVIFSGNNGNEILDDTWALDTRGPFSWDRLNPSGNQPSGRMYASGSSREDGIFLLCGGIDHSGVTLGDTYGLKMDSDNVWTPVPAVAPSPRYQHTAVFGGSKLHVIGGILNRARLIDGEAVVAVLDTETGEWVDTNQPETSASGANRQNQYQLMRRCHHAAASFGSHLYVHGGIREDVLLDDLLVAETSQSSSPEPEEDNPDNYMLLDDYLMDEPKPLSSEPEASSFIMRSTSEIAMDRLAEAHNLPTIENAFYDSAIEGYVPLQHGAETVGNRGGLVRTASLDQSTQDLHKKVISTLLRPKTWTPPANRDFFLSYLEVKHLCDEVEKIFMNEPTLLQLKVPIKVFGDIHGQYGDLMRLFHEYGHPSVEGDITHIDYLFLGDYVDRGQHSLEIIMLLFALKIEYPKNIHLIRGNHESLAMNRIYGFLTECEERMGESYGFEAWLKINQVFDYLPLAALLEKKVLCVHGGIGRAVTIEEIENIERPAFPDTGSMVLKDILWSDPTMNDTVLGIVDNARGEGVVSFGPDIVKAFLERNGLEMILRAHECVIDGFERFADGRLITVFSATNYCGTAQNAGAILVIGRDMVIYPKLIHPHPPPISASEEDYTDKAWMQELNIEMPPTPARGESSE

[1] = target: MBP-BSU1 pre-incubated with GST-CDG1 and ATP (Arabidopsis, UniProt Q9LR78 1-793, phosphoserine at 764 (by CDG1))
MBP-BSU1 = MBP-BSU1 (Arabidopsis, UniProt Q9LR78 1-793)

Binder | binding result (MBP-BSU1-S764A) | binding result [1] | binding result (MBP-BSU1)
GST-BIN2 (natural protein, Arabidopsis, UniProt Q39011 1-380, looked up) MADDKEMPAAVVDGHDQVTGHIISTTIGGKNGEPKQTISYMAERVVGTGSFGIVFQAKCLETGETVAIKKVLQDRRYKNRELQLMRVMDHPNVVCLKHCFFSTTSKDELFLNLVMEYVPESLYRVLKHYSSANQRMPLVYVKLYMYQIFRGLAYIHNVAGVCHRDLKPQNLLVDPLTHQVKICDFGSAKQLVKGEANISYICSRFYRAPELIFGATEYTTSIDIWSAGCVLAELLLGQPLFPGENAVDQLVEIIKVLGTPTREEIRCMNPHYTDFRFPQIKAHPWHKIFHKRMPPEAIDFASRLLQYSPSLRCTALEACAHPFFDELREPNARLPNGRPFPPLFNFKQEVAGSSPELVNKLIPDHIKRQLGLSFLNQSGT | binds | binds | 
GST-CDG1 (natural protein, Arabidopsis, UniProt Q9LSE1 1-432, looked up) MVSCLCFRPSRKTKLKDKSHKRSIRNQTSSSSAQPAGTAKEVDSSSSQTVVQDSSRYRCQIFSYRELAIATNSFRNESLIGRGGFGTVYKGRLSTGQNIAVKMLDQSGIQGDKEFLVEVLMLSLLHHRNLVHLFGYCAEGDQRLVVYEYMPLGSVEDHLYDLSEGQEALDWKTRMKIALGAAKGLAFLHNEAQPPVIYRDLKTSNILLDHDYKPKLSDFGLAKFGPSDDMSHVSTRVMGTHGYCAPEYANTGKLTLKSDIYSFGVVLLELISGRKALMPSSECVGNQSRYLVHWARPLFLNGRIRQIVDPRLARKGGFSNILLYRGIEVAFLCLAEEANARPSISQVVECLKYIIDHTIRKERRTRRRLLGGNKDGAGTSRSPDETMMRMLEEEEEYVTSEEAIERRRVIVDDARTWAGMNRRGATPPTPTP |  |  | binds
GST-CDG1 pre-incubated with GST-BRI1-K and ATP (natural protein, Arabidopsis, UniProt Q9LSE1 1-432, looked up, phosphoserine at 44, 47 and 234 (BRI1 phosphorylation sites, found by mass spectrometry on GST-CDG1-Y147G)) MVSCLCFRPSRKTKLKDKSHKRSIRNQTSSSSAQPAGTAKEVDSSSSQTVVQDSSRYRCQIFSYRELAIATNSFRNESLIGRGGFGTVYKGRLSTGQNIAVKMLDQSGIQGDKEFLVEVLMLSLLHHRNLVHLFGYCAEGDQRLVVYEYMPLGSVEDHLYDLSEGQEALDWKTRMKIALGAAKGLAFLHNEAQPPVIYRDLKTSNILLDHDYKPKLSDFGLAKFGPSDDMSHVSTRVMGTHGYCAPEYANTGKLTLKSDIYSFGVVLLELISGRKALMPSSECVGNQSRYLVHWARPLFLNGRIRQIVDPRLARKGGFSNILLYRGIEVAFLCLAEEANARPSISQVVECLKYIIDHTIRKERRTRRRLLGGNKDGAGTSRSPDETMMRMLEEEEEYVTSEEAIERRRVIVDDARTWAGMNRRGATPPTPTP |  |  | binds
